Experimental findings from patent US20250074980A1 (BRIGHAM AND WOMEN S HOSPITAL, published 2025) are described below.

Substitutions are numbered along the chain they refer to. In names and notes the source's numbering stands. Several values for one entry are separate records, joined by “and”; a condition that tells them apart may be missing. Equal entries are not always repeated.

T1: CEACAM3 on transfected HeLa cells (human, UniProt P40198 35-252)
T1 construct: whole, on cells; also called HeLa-CEACAM3; HeLa C3
T1 sequence (looked up): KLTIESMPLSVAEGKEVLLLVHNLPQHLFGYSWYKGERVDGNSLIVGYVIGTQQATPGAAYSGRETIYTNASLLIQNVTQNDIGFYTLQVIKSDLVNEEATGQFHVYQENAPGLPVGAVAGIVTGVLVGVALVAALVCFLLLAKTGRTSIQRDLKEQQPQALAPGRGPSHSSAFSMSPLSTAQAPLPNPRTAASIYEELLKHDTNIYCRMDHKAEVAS

T2: CEACAM8 on transfected HeLa cells (human, UniProt P31997 35-320)
T2 construct: whole, on cells; also called HeLa-CEACAM8; HeLa C8
T2 sequence (looked up): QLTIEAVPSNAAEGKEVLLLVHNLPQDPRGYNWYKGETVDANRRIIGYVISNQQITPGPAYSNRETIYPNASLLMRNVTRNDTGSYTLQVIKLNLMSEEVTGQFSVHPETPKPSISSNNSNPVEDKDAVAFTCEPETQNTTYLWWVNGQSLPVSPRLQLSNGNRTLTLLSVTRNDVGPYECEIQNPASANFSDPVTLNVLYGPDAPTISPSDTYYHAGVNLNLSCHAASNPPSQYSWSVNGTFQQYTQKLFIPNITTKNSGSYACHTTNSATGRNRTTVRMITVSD

T3: His-tagged CEACAM1 (human, UniProt P13688 35-428)
T3 construct: 45 kDa SPR analyte; also called CEACAM1-HIS; CEACAM1 analyte
T3 sequence: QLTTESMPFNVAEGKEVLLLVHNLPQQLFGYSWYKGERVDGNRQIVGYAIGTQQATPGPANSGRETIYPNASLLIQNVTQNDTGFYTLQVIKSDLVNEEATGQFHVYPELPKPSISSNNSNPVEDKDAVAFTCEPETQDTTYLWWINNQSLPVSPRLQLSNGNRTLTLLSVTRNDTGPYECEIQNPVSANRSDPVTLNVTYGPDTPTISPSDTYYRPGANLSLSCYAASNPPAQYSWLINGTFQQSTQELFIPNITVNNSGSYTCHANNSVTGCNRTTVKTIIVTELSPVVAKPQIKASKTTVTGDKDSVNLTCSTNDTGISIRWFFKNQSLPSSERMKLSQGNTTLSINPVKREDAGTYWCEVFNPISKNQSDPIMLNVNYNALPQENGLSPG

T4: CEACAM6 on transfected HeLa cells (human, UniProt P40199 35-320)
T4 construct: whole, on cells; also called HeLa-CEACAM6; HeLa C6
T4 sequence (looked up): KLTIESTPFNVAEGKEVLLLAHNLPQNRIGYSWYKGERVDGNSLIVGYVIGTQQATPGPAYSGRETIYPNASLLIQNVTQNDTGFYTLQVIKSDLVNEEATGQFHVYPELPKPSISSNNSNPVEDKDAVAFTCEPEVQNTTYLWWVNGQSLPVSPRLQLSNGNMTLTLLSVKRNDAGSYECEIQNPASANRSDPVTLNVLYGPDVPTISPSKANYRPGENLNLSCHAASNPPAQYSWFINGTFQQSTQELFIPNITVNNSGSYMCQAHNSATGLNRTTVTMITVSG

B1: VH1/Vκ2 (antibody, IgG4, V domains shown)
VH: EVQLLESGGGLVQPGGSLRLSCAASGFIFSSHGMSWVRQAPGKGLEWVATISSGGTYTYYPDSVKGRFTISRDNSKNTLYLQMNSLKAEDTAMYYCARHDFDYDAAWFAYWGQGTLVTVSS
VL: EIVLTQSPATLSLSPGERATLSCRANSSVSYMYWYQQKPGQAPRPWIYLTSNRATGVPARFSGSGSGTDYTLTISSLEPEDFATYYCQQWSSNPPTFGQGTKLEIK
notes: IgG4 (S241P), kappa
B2: VH1/Vκ9 (antibody, IgG4, V domains shown)
VH: B1 VH
VL: B1 VL with W46L
notes: IgG4 (S241P), kappa
B3: VH1/Vκ10 (antibody, IgG4, V domains shown)
VH: B1 VH
VL: B1 VL with V57I, Y70F
notes: IgG4 (S241P), kappa
B4: VH1/Vκ8 (antibody, IgG4, V domains shown)
VH: B1 VH
VL: B1 VL with T84V
notes: IgG4 (S241P), kappa
B5: VH1/Vκ7 (antibody, IgG4, V domains shown)
VH: B1 VH
VL: B1 VL with Y70F
notes: IgG4 (S241P), kappa
B6: VH1/Vκ12 (antibody, IgG4, V domains shown)
VH: B1 VH
VL: B1 VL with W46L, V57I
notes: IgG4 (S241P), kappa

The first experiment has as its target T1, CEACAM3 on transfected HeLa cells. Put plainly: flow cytometry, transfected HeLa. The method in brief:
(§1)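 Flow cytometry on HeLa cells stably transfected with single CEACAM family members, cultured at 37° C, 5.0% CO₂ in DMEM with 10% fetal bovine serum. Cells were stained with test antibody, then a fluorochrome-conjugated isotype-specific secondary antibody, with DAPI as viability dye. Data were acquired on a Cytoflex and analysed in FlowJo. Binding selectivity is given as the staining of each transfectant.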
On the technique in general: Flow cytometry measures light scatter and fluorescence of single cells or particles in a stream.
Turning to B1, the binding result is “no binding”.

Regarding B2, the binding result is “no binding”.

On to B3, for which the binding result is listed as “no binding”.

B4: the binding result was “no binding”.

Consider B5, for which the binding result is “no binding”.

Regarding B6, the binding result is reported as “no binding”.

The next experiment concerns the target T2, CEACAM8 on transfected HeLa cells. Briefly: flow cytometry, transfected HeLa. The method in brief:
as §1
Consider B1, for which the binding result is reported as “no binding”.

For B2, the binding result is “no binding”.

Consider B3, for which the binding result was “no binding”.

Regarding B4, the binding result was “no binding”.

Turning to B5, the binding result is “no binding”.

As to B6, the binding result is listed as “no binding”.

In another experiment the target is T3, His-tagged CEACAM1. Put plainly: SPR multi-cycle, IgG captured. Here is the method: (§2) As an alternative approach to assess the binding of the 36 antibody combinations and the three control antibodies to CEACAM1, a kinetic analysis was performed on a Biacore T200 (serial no. 1909913) running Biacore T200 Evaluation Software V2.0.1 (Uppsala, Sweden). All experiments were run at 25° C. with HBS-P+ running buffer (pH 7.4) (GE Healthcare, cat. no. BR100671). All kinetic experiments were performed using His-tagged CEACAM1 as the analyte. For all experiments, antibodies were immobilized onto a Series S Protein A sensor chip surface. For kinetic experiments, the amount of immobilized/captured ligand was limited to avoid mass transfer effects at the surface of the chip with the surface ideally having an analyte binding level (Rₘₐₓ) of 50-150 RUs. Using a MW of 45 kDa for the CEACAM1 analyte, 150 kDa for the antibody ligand (estimated value for IgG), 50 RU for Rmax and the stoichiometry (Sm) as 2 due to the ability of each antibody to bind 2 target molecules, a target response level of ˜75 RUs was set for capture of all the sample antibodies.
The signal from the reference channel Fc1 was subtracted from that of Fc2, Fc3 and Fc4 to correct for differences in non-specific binding to a reference surface, a global Rmax parameter was used in the 1-to-1 binding model. The relative Kp compared to […] was calculated by dividing the Kp of the humanized CEACAM antibody variants by that of the chimeric antibody VH0/Vκ0 on the same chip. A summary of the averaged relative Kp obtained for the 12 antibody combinations analyzed using multi cycle kinetics can be found in Table 5.
As for B1, the Kd was determined as 190 nM, the “average relative KD to VH0/Vκ0” value was found to be 3.4, the koff is 0.0503 s⁻¹ and the kon is 265000 M⁻¹ s⁻¹. Also, the “relative KD to VH0/Vκ0” value was determined as 3.4.

For the molecule B2, the dissociation constant Kd stood at 220 nM, the “average relative KD to VH0/Vκ0” value worked out at 4, the koff stood at 0.0504 s⁻¹ and the kon came to 229000 M⁻¹ s⁻¹. The “relative KD to VH0/Vκ0” value was determined as 4.

Turning to B3, the Kd was 180 nM, the “average relative KD to VH0/Vκ0” value came to 3.2, the koff worked out at 0.0511 s⁻¹ and the kon is 284000 M⁻¹ s⁻¹. Also, the “relative KD to VH0/Vκ0” value turned out to be 3.2.

Consider B4, for which the Kd was found to be 95 nM, the “average relative KD to VH0/Vκ0” value amounted to 1.8, the koff stood at 0.0406 s⁻¹ and the kon turned out to be 430000 M⁻¹ s⁻¹. The “relative KD to VH0/Vκ0” value was 1.8.

B5: the Kd is 119 nM and 69 nM; the “average relative KD to VH0/Vκ0” value amounted to 2; the koff is 0.0492 s⁻¹ and 0.0352 s⁻¹; the kon is 415000 M⁻¹ s⁻¹ and 510000 M⁻¹ s⁻¹.

As for B6, the Kd was found to be 65 nM, the “average relative KD to VH0/Vκ0” value was 2.2, the koff was 0.0268 s⁻¹ and the kon was determined as 411000 M⁻¹ s⁻¹. Further, the “relative KD to VH0/Vκ0” value is 2.2.

The target of another experiment is T3, His-tagged CEACAM1. Put plainly: SPR single-cycle, IgG captured. Here is the method: as §2
Single cycle analysis of the 36 antibody combinations and the three control antibodies was performed on purified antibodies (Vκ1 to Vκ6 variants) or on the supernatants of the transiently transfected HEK EBNA cells (Vκ7 to Vκ12 variants). In some instances, where supernatant was not available, purified chimeric antibody VH0/Vκ0 was spiked into HEK EBNA culture medium to use as a positive control. Antibodies were diluted in HBS-P+ to a concentration of 1 μg/ml (as determined by an IgG quantitation ELISA). At the start of each cycle, antibodies were loaded onto Fc2, Fc3 and Fc4 of a protein A chip and IgG captured at a flow rate of 8 μl/min to give an RU of ˜75. The surface was then allowed to stabilize. Single cycle kinetic data was obtained at a flow rate of 50 μl/min to minimize any potential mass transfer effects. Multiple repeats of the chimeric antibody VH0/Vκ0 were performed to check the stability of the surface and analyte over the kinetic cycles. The signal from the reference channel Fc1 (no antibody) was subtracted from that of Fc2, Fc3 and Fc4 to correct for differences in non-specific binding to a reference surface. A 5 point 2-fold dilution range from 3.125 to 50 nM CEACAM1 without regeneration between each concentration was used.
B1: the Kd was determined as 134 nM and the “relative KD to VH0/Vκ0” value is 3.2.

As to B2, the Kd amounted to 142 nM and the “relative KD to VH0/Vκ0” value worked out at 3.4.

As for B3, the dissociation constant Kd came to 146 nM and the “relative KD to VH0/Vκ0” value came to 3.5.

With B4, the Kd is 131 nM and the “relative KD to VH0/Vκ0” value came to 3.2.

Turning to B5, the Kd was 109 nM and the “relative KD to VH0/Vκ0” value was found to be 2.6.

As for B6, the Kd was 143 nM and the “relative KD to VH0/Vκ0” value is 3.5.

For the next experiment, the target named is T4, CEACAM6 on transfected HeLa cells. Briefly: flow cytometry, HeLa-CEACAM6 transfectants, % positive cells. Here is the method:
Binding selectivity for CEACAM1 was tested for the 24 humanized antibody variants that bound to CEACAM1 (see Table 3), as well as the chimeric control antibody VH0/Vκ0, by flow cytometry on HeLa cells transfected with CEACAM1, 3, 5, 6 and 8. […] There was no evidence of any staining of the HeLa-CEACAM3 or HeLa-CEACAM8 transfectants. […] Due to its favorable affinity to and selectivity for CEACAM1 as well as its favorable expression level, VH1/Vκ8 was chosen as the framework for affinity maturation.
On to B1, for which the binding result is “no binding”.

Consider B2, for which the binding result is “no binding”.

As to B3, the binding result is listed as “no binding”.

For B4, the binding result was “no binding”.

Turning to B5, the binding result was “no binding”.

Turning to B6, the binding result is “no binding”.

As usually defined, the Kd is the constant that tells how readily two partners part at equilibrium. Usually koff stands for the first-order rate constant of dissociation. What is called kon is the rate constant with which the complex forms.
